Measured values from the RNAGym collection of RNA variant scans (doi:10.7554/elife.90254).

B1: OR4K15 (parent)
chain: GUUAACGGUCAUAGGCCAUGGAAACUAGGAGCACCAUUUCGCUGCCAGUGAAGAAAUGAACAAAGAAAAUCUGGGCCAGGCAGGCAUCAAAAGAAAUAGUCUUGCGCUCAACCAGAAAGUCUGUAAUCAUUUUAAGGGUA

Variants of: B1
Test: self-cleavage, relative activity (ratio to wild type); higher = more cleavage; in vitro, sequencing; the parent is a self-cleaving ribozyme

Variant	self-cleavage
A30U U87C	0.96
A30U A125G	0.5
C32U U39C	1.47
G28U A118G	0.84
G28U A118U	0.68
A33U A60U	1.68
A33G U38C	1.41
A30U A47G	0.97
A33G A47G	0.32
A33G A47U	0.57
G29C U37C	1.25
A30G A62G	1.07
A30G A62U	1.29
G29A A78U	0.14
G29A A78C	0.33
A33U A36G	2.32
G29A C34U	1.67
A33G A98G	0.77
A33G U124C	0.63
A30G C32U	0.93
A30U C105U	0.4
A30G U120C	1.04
A30G U120A	1.3
A30G A52U	1.62

Variant	self-cleavage
A33U A91G	0.6
G29U A111G	0.05
A30U A89U	1.55
G31A U39C	1.68
A33G A64G	0.5
A30G A47C	1.21
A30G A47G	0.71
G29A A92G	1.16
G29A A92U	1.86
G29A A67G	1.29
A30C A89G	1.34
G29U A78G	0.24
G29U A78U	0.35
A30G U37C	0.98
A30G U37A	1.7
A30G C121A	2.31
G29A A86G	1.65
A33G A68G	1.04
A33G A68U	1.02
A30G U131C	0.95
C32U C105U	0.18
A30G A55U	1.44
A33G A116U	0.21
A33G A116G	0.24

Variant	self-cleavage
A33G A116C	0.14
A30G A56C	0.43
A30U A134G	1.06
G31C U122A	1.89
G29U C88U	2.55
A33U A55U	2.31
A30G U97C	1.23
A30U U108C	0.02
G29A A33G	0.88
A33G A56G	0.77
A30G A125G	0.87
G31U A110G	0.24
A30G C113U	0.07
A33U A89G	1.46
G31C U102C	1.92
G31A A60C	1.95
A33U A64G	1.31
A30G U49C	1.07
G31A U108C	0.03
A30G U43C	1.39
A30G U43A	1.01
G31C U70A	0.94
A30G U103C	1.09
A30G U132G	0.69

Variant	self-cleavage
A33G U49C	0.5
A33G U49G	0.61
G29A C40A	1.82
A33U A51C	2.09
A33U A51G	1.97
G28U A52G	1.37
A30G A92G	1.05
A30G A92U	0.71
A33C U49C	1.93
A33G A135G	0.69
A30U C101A	0.25
A33G A134G	0.52
G31A U130C	1.91
A33C A68U	2.07
A33C U127C	1.38
A33G C77U	1.59
A30G U57G	1.24
A30G U57A	1.15
A33G A95G	1.48
A33G C113A	0.01
A30G A135G	1.51
A30G A54U	1.33
A33C A60G	1.57
C32A U108C	0.03

Variant	self-cleavage
G31A A47G	1
G31A A47U	0.83
A30G C61U	0.84
C32U U120C	1.57
A30G U122C	0.84
A30G U108C	0.02
C32G A95G	1.87
G31U A63G	2.02
A30U A78U	0.2
A30U U103G	0.03
A30U U103A	0.53
A30G U127C	0.97
G31U A82G	0.19
G31U A82U	0.27
G28U A62G	1.64
G31A U87A	1.76
G31A U122C	2.04
A30C G75C	0.12
G29A A134G	0.51
A30C U132C	1.12
C32U U87C	1.36
A33C A59G	1.39
A33G A114G	0.11
A33G A114C	0.05

Variant	self-cleavage
A33G A114U	0.02
A30U A95G	0.89
A33G G93A	1.14
A33U A86G	1.33
C32A A47U	1.05
C32A A47G	0.49
A30G C35A	0.7
A30U U57A	1.02
A30U U57C	1.31
G29A U122C	1.08
A30G A51U	1.46
A30G A68U	1.28
A30U A91U	0.83
G28U A135C	2.26
A30G A82C	0.07
G29A A129G	1.59
A30G A64U	0.3
A30G A64C	1.38
A33U A82U	0.23
A33G	0.82
A33C	1.35
A33U	1.4
A30U U122C	1.35
A30G A117G	1.48

Variant	self-cleavage
A33G U122C	0.64
A30G A67C	1.15
A30G A98G	0.76
C32U A47U	0.9
A33U A69G	1.71
G31A G73U	0.3
C32U A63G	1.39
A33G A52G	0.91
A33G A52U	1.42
G31C A55U	1.76
A30U G79U	0.09
A33C A63G	1.98
A33G A92C	0.81
A33G A92G	1.01
A30G G115U	0.21
A30G C128U	1.78
A30G A60G	0.96
A30U U131C	1.07
A33C C46U	1.3
A30C A55G	1.44
A33G A59G	0.98
A30U A126G	1.03
C32U U130C	1.26
